Results taken from publication PMC5113989.
Like-named read-outs stand apart in the source and are kept apart here.

Tests used:
Experiment in all cases: KinExA flow fluorimetry (depletion of 5-Helix by cells)
[1] = biological target: C34-conjugated CXCR4 (gp41 HR2 peptide C34 fused to the amino terminus of CXCR4) (HIV-1 (HxB2 numbering) | not stated) (UniProt P04578)
[2] = biological target: C34-conjugated CCR5 (gp41 HR2 peptide C34 fused to the amino terminus of CCR5) (HIV-1 (HxB2 numbering) | human (genomic DNA of the Jurkat T cell line)) (UniProt P04578)
[3] = biological target: C34-conjugated CXCR4 (gp41 HR2 peptide C34 fused to the amino terminus of CXCR4) (HIV-1 (HxB2 numbering) | not stated) (UniProt P04578); remark: listed apart in the source
[4] = biological target: C34-conjugated CCR5 (gp41 HR2 peptide C34 fused to the amino terminus of CCR5) (HIV-1 (HxB2 numbering) | human (genomic DNA of the Jurkat T cell line)) (UniProt P04578); remark: listed apart in the source

“rhodamine-conjugated 5-Helix (5-Helix variant containing a C-terminal Cys residue)” gave a Kd [1] of 0.004 nM, a Kd [2] of 0.013 nM and a Kd [3] of under 0.015 nM. It also gave a Kd [4] of under 0.015 nM.
